Measurements: article PMC12653191 (Journal of Fungi, 2025)

Target: T1, Candida glabrata Pbn1 (C. glabrata ATCC 2001, UniProt Q6FX62 1-416, N-glycosylation at N35, N319 and N365)
T1 construct: Pbn1, auxiliary subunit of GPI mannosyltransferase I, Candida glabrata ATCC 2001, UniProt Q6FX62, full length (416 amino acids); residues 2-408 are modelled in the structure; also called auxiliary subunit of GPI-MT-I; source: S. cerevisiae INVSc1, co-expressed with Gpi14, purified (Strep-Tactin, SEC); not shown: Twin-Strep II, N-terminal, kept
T1 sequence (looked up): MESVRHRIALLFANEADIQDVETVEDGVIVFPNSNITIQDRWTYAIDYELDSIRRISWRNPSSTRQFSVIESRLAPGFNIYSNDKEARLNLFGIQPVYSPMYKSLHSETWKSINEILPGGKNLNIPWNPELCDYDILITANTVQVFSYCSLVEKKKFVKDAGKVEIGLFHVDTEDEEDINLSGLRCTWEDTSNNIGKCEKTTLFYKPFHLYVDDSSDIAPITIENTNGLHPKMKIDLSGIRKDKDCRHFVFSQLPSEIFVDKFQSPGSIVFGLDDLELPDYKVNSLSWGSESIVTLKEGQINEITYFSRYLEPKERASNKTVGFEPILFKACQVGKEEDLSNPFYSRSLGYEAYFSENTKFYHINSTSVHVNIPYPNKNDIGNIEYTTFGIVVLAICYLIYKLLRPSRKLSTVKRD
Assay: cryo-EM structure; Gpi14-Pbn1 complex co-expressed in S. cerevisiae, purified by Strep-Tactin on Pbn1 and SEC in 20 mM Hepes pH 7.4, 150 mM NaCl, 0.02% GDN; ~22 mg/mL; endogenous Dol-P-Man bound
Settings: both partners purified

B1: Candida glabrata Gpi14 (enzyme, C. glabrata ATCC 2001, UniProt Q6FXQ5 1-431, looked up)
chain: MFKLGTIGLLSLAVLLRIAFFLFGVYQDEHFTVKYTDIDYQVFNDAAWFVAHRKSPYNRDTYRYTPLLSWLLLPNHMIPWFHFGKLIFVLCDLATGVLILQMLKKLKSKYRYGTDRMTIMAAIWLLNPMVITISTRGNAESVLCFLILSFLYCFLCEQYLLGGLLFGLSIHFKIYPIIYALPIAIYVAAAHYNKTQSVFKSSFKLFLVGFSTLIVLILLTVFMYMLYGDKFIDQTYLYHIYRTDHRHNFSVWNMLLYFNSALPKTSELSKFVFLPQMIIVLAISLTQLRRPSSFPLLCNVLFLETFAFVTFNKVCTSQYFIWYLIFLPFVLYNTRISMRRGIVMLVVWVATQALWLRQGYLLEFEGQNVFYPGLFCASVGFFVSNAWILGQFIEDTIIQNDYVYRIEPSESRSKDSAVIDKPAIAKTEKAE
notes: Gpi14, GPI mannosyltransferase I catalytic subunit, Candida glabrata ATCC 2001, UniProt Q6FXQ5, full length (431 amino acids); residues 2-408 are modelled in the structure; also called catalytic subunit of GPI-MT-I; source: S. cerevisiae INVSc1, co-expressed with Pbn1, purified (Strep-Tactin via Pbn1, SEC)
stoichiometry N: 1
